Data on three molecules can be found in patent publication US20190225676A1 (Hoffmann-La Roche, published 2019).

B1: FAB-COLL-I: anti-digoxigenin antibody Fab conjugated to anti-collagen II antibody scFv I (bispecific antibody)
heavy: QVQLVESGGGLVKPGGSLRLSCAASGFTFSDYAMSWIRQAPGKGLEWVSSINIGATYIYYADSVKGRFTISRDNAKNSLYLQMNSLRAEDTAVYYCARPGSPYEYDKAYYSMAYWGQGTTVTVSSASTKGPSVFPLAPSSKSTSGGTAALGCLVKDYFPEPVTVSWNSGALTSGVHTFPAVLQSSGLYSLSSVVTVPSSSLGTQTYICNVNHKPSNTKVDKKVEPKSCGGGGSGGGGSEIVLTQSPATLSLSPGERATLSCRASQSVRDFLAWYQQKPGQAPRLLIYGASNRATGIPARFSGSGSGTDFTLTISSLEPEDFAVYYCQQRGSAPLTFGQGTKVEIKGGGGSGGGGSGGGGSGGGGSQVQLVQSGAEVKKPGSSVKVSCKASGGTFSSYAISWVRQAPGQGLEWMGGIIPIFGTANYAQKFQGRVTITADESTSTAYMELSSLRSEDTAVYYCARDPNGNIVLSEYFDYWGQGTLVTVSS
light: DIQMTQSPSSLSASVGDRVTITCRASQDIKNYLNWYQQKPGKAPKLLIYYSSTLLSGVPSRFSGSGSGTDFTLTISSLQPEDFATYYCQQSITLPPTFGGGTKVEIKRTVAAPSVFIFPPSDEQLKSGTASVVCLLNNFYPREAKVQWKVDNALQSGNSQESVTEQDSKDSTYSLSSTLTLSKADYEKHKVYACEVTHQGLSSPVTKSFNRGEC
notes: Fab-scFv fusion; also called FAB-COLL-I (2 nM)
B2: FAB-COLL-II: anti-digoxigenin antibody Fab conjugated to anti-collagen II antibody scFv II (bispecific antibody)
heavy: QVQLVESGGGLVKPGGSLRLSCAASGFTFSDYAMSWIRQAPGKGLEWVSSINIGATYIYYADSVKGRFTISRDNAKNSLYLQMNSLRAEDTAVYYCARPGSPYEYDKAYYSMAYWGQGTTVTVSSASTKGPSVFPLAPSSKSTSGGTAALGCLVKDYFPEPVTVSWNSGALTSGVHTFPAVLQSSGLYSLSSVVTVPSSSLGTQTYICNVNHKPSNTKVDKKVEPKSCGGGGSGGGGSEIVLTQSPATLSLSPGERATLSCRASQSVDDWLAWYQQKPGQAPRLLIYDASNRATGIPARFSGSGSGTDFTLTISSLEPEDFAVYYCQQGDTAPITFGQGTKVEIKGGGGSGGGGSGGGGSGGGGSQVQLVQSGAEVKKPGSSVKVSCKASGGTFSSYAISWVRQAPGQGLEWMGGIIPIFGTANYAQKFQGRVTITADESTSTAYMELSSLRSEDTAVYYCARNIVGDYLLDYWGQGTLVTVSS
light: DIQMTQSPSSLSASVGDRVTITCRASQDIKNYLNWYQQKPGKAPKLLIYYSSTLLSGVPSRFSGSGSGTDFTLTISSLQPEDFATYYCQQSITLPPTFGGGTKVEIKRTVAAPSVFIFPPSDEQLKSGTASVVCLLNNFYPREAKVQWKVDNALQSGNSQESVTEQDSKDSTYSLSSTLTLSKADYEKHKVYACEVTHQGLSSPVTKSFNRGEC
notes: Fab-scFv fusion; also called FAB-COLL-II (8 nM)
B3: FAB-COLL-III: anti-digoxigenin antibody Fab conjugated to anti-collagen II antibody scFv III (bispecific antibody)
heavy: QVQLVESGGGLVKPGGSLRLSCAASGFTFSDYAMSWIRQAPGKGLEWVSSINIGATYIYYADSVKGRFTISRDNAKNSLYLQMNSLRAEDTAVYYCARPGSPYEYDKAYYSMAYWGQGTTVTVSSASTKGPSVFPLAPSSKSTSGGTAALGCLVKDYFPEPVTVSWNSGALTSGVHTFPAVLQSSGLYSLSSVVTVPSSSLGTQTYICNVNHKPSNTKVDKKVEPKSCGGGGSGGGGSEIVLTQSPATLSLSPGERATLSCRASQSVADWLAWYQQKPGQAPRLLIYDASNRATGIPARFSGSGSGTDFTLTISSLEPEDFAVYYCQQYDGWPITFGQGTKVEIKGGGGSGGGGSGGGGSGGGGSQVQLVQSGAEVKKPGSSVKVSCKASGGTFSSYAISWVRQAPGQGLEWMGGIIPIFGTANYAQKFQGRVTITADESTSTAYMELSSLRSEDTAVYYCARHLYYMLDYWGQGTLVTVSS
light: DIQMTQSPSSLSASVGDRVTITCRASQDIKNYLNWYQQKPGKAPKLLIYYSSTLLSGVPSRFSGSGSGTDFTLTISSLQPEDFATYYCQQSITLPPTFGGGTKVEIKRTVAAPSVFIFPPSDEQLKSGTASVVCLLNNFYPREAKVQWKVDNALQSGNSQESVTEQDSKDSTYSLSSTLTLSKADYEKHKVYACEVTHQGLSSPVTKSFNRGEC
notes: Fab-scFv fusion; also called FAB-COLL-III (8 nM)

The target in the first assay is T1, human Collagen type II (Millipore CC052) (human, UniProt P02458 182-1241, limits assumed).
T1 construct: Bought material, immobilised by amine coupling on the sensor chip; also called human collagen II
T1 sequence (P02458 182-1241 limits assumed): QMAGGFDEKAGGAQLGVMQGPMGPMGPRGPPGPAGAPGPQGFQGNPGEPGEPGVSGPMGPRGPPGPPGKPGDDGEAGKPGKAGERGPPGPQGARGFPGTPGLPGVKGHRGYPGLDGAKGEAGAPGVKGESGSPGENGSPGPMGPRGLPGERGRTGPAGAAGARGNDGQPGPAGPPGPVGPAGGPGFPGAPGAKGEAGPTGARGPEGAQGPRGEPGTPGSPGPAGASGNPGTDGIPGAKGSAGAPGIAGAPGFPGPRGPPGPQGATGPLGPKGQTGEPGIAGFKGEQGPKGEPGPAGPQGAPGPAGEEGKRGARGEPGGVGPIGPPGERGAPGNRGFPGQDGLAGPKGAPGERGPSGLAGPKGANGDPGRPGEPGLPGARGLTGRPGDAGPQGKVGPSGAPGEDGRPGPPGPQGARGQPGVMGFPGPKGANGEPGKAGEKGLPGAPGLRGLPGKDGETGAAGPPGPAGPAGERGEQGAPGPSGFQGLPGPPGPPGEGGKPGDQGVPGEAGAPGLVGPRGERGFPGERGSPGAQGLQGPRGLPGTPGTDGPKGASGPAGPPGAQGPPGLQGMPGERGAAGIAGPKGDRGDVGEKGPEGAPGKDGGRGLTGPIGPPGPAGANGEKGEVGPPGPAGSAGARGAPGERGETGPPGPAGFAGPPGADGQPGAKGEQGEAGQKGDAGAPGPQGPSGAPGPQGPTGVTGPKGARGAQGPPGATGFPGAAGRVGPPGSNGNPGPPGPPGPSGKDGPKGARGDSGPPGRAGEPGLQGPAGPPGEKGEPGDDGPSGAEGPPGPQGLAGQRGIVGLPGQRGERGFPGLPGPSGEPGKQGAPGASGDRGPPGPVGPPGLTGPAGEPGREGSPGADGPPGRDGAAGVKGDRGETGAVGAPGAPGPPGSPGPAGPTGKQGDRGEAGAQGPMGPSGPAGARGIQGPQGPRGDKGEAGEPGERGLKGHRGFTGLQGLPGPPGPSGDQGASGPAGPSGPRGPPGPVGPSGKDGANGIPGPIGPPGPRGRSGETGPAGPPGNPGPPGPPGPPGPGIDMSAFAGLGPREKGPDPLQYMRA
Briefly: SPR (BIAcore T200), collagen II amine-coupled on chip, construct injected 1.23-900 nM, 25 C, 1:1 Langmuir fit. As for the experimental part:
(§1) Binding kinetics of anti-collagen antibodies to human Collage type II (Millipore CC052) and porcine Collagen type II (USBiological C7510-31) was investigated by surface plasmon resonance using a BIAcore T200 instrument (GE Healthcare). All experiments were performed at 25° C. using HBS-P (10 mM […], 140 mM NaCl, 0.05% Tween 20 pH 7.4) as running and dilution buffer. Collagen type II was immobilized on a Series S CMS Sensor Chip (GE Healthcare) using standard amine coupling chemistry. Anti-Collagen antibodies were injected for 180 s with concentrations from 1.23 up to 900 nM (1:3 dilution series) onto the surface (association phase). The dissociation phase was monitored for 600 sec by washing with running buffer. The surface was regenerated by injecting 0.85% H₃PO₄ for 60 sec. Bulk refractive index differences were corrected by subtracting the response obtained from a mock surface. Blank injections were subtracted (double referencing). The derived curves were fitted to a 1:1 Langmuir binding model using the BIAevaluation software.
Consider B1, for which the equilibrium dissociation constant (Kd) (as a rule, the free concentration of one partner at which half of the binding sites on the other are occupied at equilibrium, for simple one-to-one binding) was determined as 0.03 µM.
Same read-out and setting: the same measure for B2: 0.015 µM; for B3: 0.18 µM.

Another assay deals with T2, porcine Collagen type II (USBiological C7510-31) (porcine).
T2 construct: Bought material, immobilised by amine coupling on the sensor chip; also called porcine collagen II
Described as above. As for the experimental part: as §1
The molecule B1 gave a Kd of 0.056 µM.
On the same count and under the same terms, the same measure for B2: 0.05 µM; for B3: 0.342 µM.

For another assay, the target named is collagen (ECM compound added to PBS in the FCS diffusion test solution). Briefly: cell-based or functional assay.
Take B1: the “diffusion rate FCS (increase in PBS comprising ECM compound at equimolar concentration compared to PBS alone)” value came out at 180%.
For the molecule B2, the “diffusion rate FCS (increase in PBS comprising ECM compound at equimolar concentration compared to PBS alone)” value came out at 260%.
Same read-out and setting: the same measure for B3: 40%.
